In the supplement of paper PMC7125110:
± gives the standard error. This sample holds only a part of the variants without activity.

B1: glmS ribozyme (parent)
chain: AUAAAAGCGCCAGAACUACAGAAAUGUAGUUGACGAGGAGGAGGUUUAUCGAAUUUUCGGCGGAUGCCUCCAAA

Key:
Conditions in all cases: with glucosamine-6-phosphate
[1] = variants of: B1; assay: self-cleavage kobs at 640 uM GlcN6P; higher = faster cleavage; RNA array
Procedure, shortened: (§1)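 Barcoded ribozyme variants were transcribed in situ on sequenced MiSeq chips by E. coli RNA polymerase. At 37 °C, a hybridised Cy3 probe tracked them while glucosamine-6-phosphate (40 μM to 10 mM) in HEPES/KCl/Mg(OAc)2 buffer flowed in and tiles were imaged over ~14 h. Per-tile medians of signals normalised to baseline and to non-cleaving reference variants were fit to one- or two-exponential decays, giving kobs. kcat and KM came from weighted Michaelis–Menten fits across concentrations.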

[2] = variants of: B1; assay: self-cleavage kobs at 2500 uM GlcN6P; higher = faster cleavage; RNA array
Procedure, shortened: as §1

[3] = variants of: B1; assay: self-cleavage kobs at 10000 uM GlcN6P; higher = faster cleavage; RNA array
Procedure, shortened: as §1

Variant	self-cleavage kobs at 640 uM GlcN6P [1] [s⁻¹]	self-cleavage kobs at 2500 uM GlcN6P [2] [s⁻¹]	self-cleavage kobs at 10000 uM GlcN6P [3] [s⁻¹]
A6U G43U C61U C71U	< 1e-05	< 1e-05	
C16A A52G C70U	0.00109 ± 0.00029		
G35U A39C C71U	< 1e-05	< 1e-05	
C8U G32C U45C	< 1e-05	< 1e-05	
G32U U46G C50G	0.000215 ± 4.7e-05	9.4e-05 ± 3.4e-05	
A48U G59C C68G	< 1e-05		
U31G C58A G60C	< 1e-05	< 1e-05	
G44U U49C G62U	< 1e-05	< 1e-05	
C11G A33U C58U	< 1e-05		
U45G U46C G59U U65G U69G	< 1e-05	< 1e-05	
A33G G43U C70G	< 1e-05		
C16U G35C A53U C58U	< 1e-05	< 1e-05	
A33U C34G G44A G51A	< 1e-05	< 1e-05	
G32A G35C A39G	< 1e-05	< 1e-05	
C10G U47A A53U G60U	< 1e-05		
G29U G38U U57A G59C	< 1e-05		
G29C G32C A52C C68G	8.66e-05 ± 3.9e-05		
A42U C61U C67U	< 1e-05		
G9C A42U U47A U57G	< 1e-05		
A36U C61U C71U	< 1e-05		< 1e-05
G9A A36G A39C C70G	< 1e-05	< 1e-05	

Variant	self-cleavage kobs at 640 uM GlcN6P [1] [s⁻¹]	self-cleavage kobs at 2500 uM GlcN6P [2] [s⁻¹]	self-cleavage kobs at 10000 uM GlcN6P [3] [s⁻¹]
C8G A42U	< 1e-05		< 1e-05
U30C U49G U55C	< 1e-05		
A42G U54G U55G U65A C67A C71U	0.000215 ± 3.1e-05	8.43e-05 ± 2e-05	
G7C G32C G59A	< 1e-05		
U31G G32A U54C	0.000129 ± 3.8e-05	0.000702 ± 0.00023	
G37C G60U U69A	< 1e-05	< 1e-05	
G37A U56G A64U	< 1e-05	< 1e-05	
G9U G63A	< 1e-05	< 1e-05	< 1e-05
G29U A39C G66A	0.000154 ± 3.3e-05	0.000178 ± 5.1e-05	
G29C A36C A39C	< 1e-05		< 1e-05
U30G A33G U57C	< 1e-05	< 1e-05	< 1e-05
A6U C11A A33G U47C U49A G51U A53U G59U	< 1e-05	< 1e-05	
C10G C11U U45G A48U C58U	< 1e-05	< 1e-05	
A6C G38U G40A A48G A52U G63C	< 1e-05	< 1e-05	
G7A A33G C68G	0.00031 ± 0.00013	6.13e-05 ± 2.5e-05	
A36C G51U A53C	< 1e-05	< 1e-05	< 1e-05
C10A C16U C68A	0.000489 ± 0.00017		
A14C G41C G44C C50G	< 1e-05		
C16G G59C C61U	< 1e-05	< 1e-05	
C8U U30A G62C	< 1e-05		
A14U U30C C70G	9.88e-05 ± 3e-05	8.37e-05 ± 2.2e-05	

Variant	self-cleavage kobs at 640 uM GlcN6P [1] [s⁻¹]	self-cleavage kobs at 2500 uM GlcN6P [2] [s⁻¹]	self-cleavage kobs at 10000 uM GlcN6P [3] [s⁻¹]
C16G G29A A39C	0.000119 ± 2.9e-05	0.00027 ± 6.6e-05	
C16U A33G C68G	5.07e-05 ± 2.3e-05		
C16U U46C G62U	< 1e-05		
G9U U30G U31C A39C A64G	< 1e-05	< 1e-05	
A53G U57C	0.000146 ± 4.6e-05	0.000159 ± 4.1e-05	0.0005 ± 8.7e-05
C16U U47A G62U	< 1e-05		
A14U G38A A53G G63U	< 1e-05		
G44U G51A C68U	< 1e-05	< 1e-05	
A15U U31G A48U	< 1e-05		
A6G A52C C58G G63A G66C	< 1e-05	< 1e-05	
G9C C11U U56G G66C	< 1e-05		
A6C G13A G63A	< 1e-05	< 1e-05	
G32U U56A C67A	0.000114 ± 2.4e-05	0.000294 ± 8.2e-05	
C10G G38A U47C A52C	< 1e-05		
G7A G37A G66U	< 1e-05	< 1e-05	
C10A G38A G51U C70G	5.43e-05 ± 1.7e-05		
A12U A42G C68U	0.00273 ± 0.00096		
G7A A48C U69G	< 1e-05	< 1e-05	
A14C U56G C67G	0.000636 ± 0.00024	0.00165 ± 0.00073	0.0219 ± 0.0084
A33C C34G A53C U57A G66C	< 1e-05		
G32A G35U U57A	< 1e-05		
